Tests used:
[1] = system: P. falciparum-infected erythrocytes; assay: GX sPLA2 lipolysis of infected red blood cells, young and mature stages (NEFA); assay type: cell-based, human; settings: no serum, 5 h at 37° C.
Description: A semi-synchronous culture of P. falciparum (2.5% parasitaemia) was analysed for sensitivity to GX sPLA2 at early and late development stages. Parasitaemia and stage distribution were determined from Diff-Quick-stained smears. Early stages were processed at t 0 h and late stages were processed 24 h later (t 24 h). Cultures were washed and cells were re-suspended at 50% haematocrit in RPMI 0.05% BSA, and then distributed into wells of a 96-well microplate in the presence or absence of respectively 30.0 nM of GX sPLA2 and 0.2 nM of bee venom sPLA2. Non-infected erythrocytes and human serum were processed similarly, after all samples had been adjusted for same phosphatidylcholine (PC) content. […] NEFAs in each sample were measured in triplicate using the NEFA-C kit (WAKO). […]
A parasite culture was enriched in young parasite stages (rings+early trophozoites) by sorbitol treatment. Parasitaemia (2.5-3%) and stage distribution were determined from Diff-Quick staining of culture smears. […] NEFAs in erythrocyte samples are expressed as the sum of NEFAs from ghosts and corresponding supernatant.
The membranolytic activity of the recombinant GX sPLA2 on RBCs infected by either young (ring/young trophozoite) or mature (late trophozoite/schizont) parasites was analysed. […] Parasite cultures were incubated with GX sPLA2 in the absence of serum for 5 h and NEFA production was measured thereafter. […]

[2] = system: P. falciparum-infected erythrocytes; assay: Hydrolysis of serum-derived and Albumax II-derived parasite cultures (NEFA); assay type: cell-based, human; settings: 50 nM, 6 h, schizont-enriched culture
Description: Parasites were grown in medium containing either 8% human serum (iRBC/S) or 0.5% Albumax II® (iRBC/A). Cultures were semi-synchronized so that they contain mainly mature parasites at the time of the experiment. Both cultures (2.5-3% parasitaemia) were then washed and cells were re-suspended at 50% haematocrit in RPMI 0.05% BSA with or without 50 nM of recombinant GX sPLA2, and incubated for 6 h in culture conditions. Non-infected RBCs (red blood cells) and human serum were processed similarly. Cell supernatants and serum were frozen at −20° C.; erythrocyte ghosts were prepared and frozen. NEFAs in each sample were measured in duplicate upon thawing, using the NEFA-C kit (WAKO). NEFA amount in healthy RBCs (RBC) and in infected cultures (iRBC) is expressed as the sum of NEFAs from paired ghosts and supernatants. Values are the mean of the duplicate measurement, subtracted for values in the absence of enzyme. The experiment was repeated twice and gave similar qualitative results. Results from one experiment are shown;
Parasites were grown for several cycles in culture medium supplemented either with 8% human serum or with 0.5% Albumax II®. Cultures were semi-synchronized by Sorbitol treatment 2-3 days prior to the experiment. […] NEFAs were measured using the NEFA-C kit (WAKO). […]

B1: X: recombinant human group X secreted phospholipase A2 (protein, UniProt O15496 43-165, looked up)
Group 10 secretory …: GILELAGTVGCVGPRTPIAYMKYGCFCGLGGHGQPRDAIDWCCHGHDCCYTRAEEAGCSPKTERYSWQCVNQSVLCGPAENKCQELLCKCDQEIANCLAQTEYNLKYLFYPQFLCEPDSPKCD
- membranolytic activity on healthy (non-infected) erythrocytes ([1]; 30 nM): left intact
- membranolytic activity on parasite culture erythrocytes (NEFA release, words) ([1]; GX 30 nM, bee venom 0.2 nM): induced the release of NEFAs from the parasite culture with predominance for the schizont stages
- NEFA release from Albumax II-derived versus serum-derived parasite culture [2]: released at the same rate

— patent US8709741B2, “Methods of diagnosing a plasmodium infection” (priority 2009, dated 2014)
